{
  "source": "patent US20240002497A1",
  "about": "(Merck Sharp & Dohme, published 2024)",
  "binders": {"B1": {"name": "F0103387G05 (VHH)", "VHH": "EVQLVESGGGLVQAGGSLRLSCDASGRILRIGYMRWHRQGAGKQREFVARITDDSATDYADSVKGRFTISRDNAKNTVYLQMNNLNPEDTAVYYCEALVTASVRGGSIHSGTYWGRGTLVTVSS", "notes": "entry includes the FLAG-HIS6 tag; also called F0103387G05 (parental)-FLAG-HIS6"}, "B2": {"name": "F0103464B09 (parental)-FLAG-HIS6 (VHH)", "VHH": "EVQLVESGGGLVQPGGSLRLSCATTSRAFIRDVFTGWYRRVPGKERELVARIYNGGNTNYADFAKGRFSISRDNAKKMVTLRMSNLKPEDTGVYYCLFSGTINTGREYRSGDYWGQGTLVTVSS", "notes": "also called F010346B09"}, "B3": {"name": "F0103464B09 (VHH)", "VHH": "B2 VHH", "notes": "entry includes the FLAG-HIS6 tag; also called F0103464B09 (parental)-FLAG-HIS6; F103464B09"}},
  "key": {"[1]": {"molecular_target": "T1, huNav1.7α(F276V) + β1-β2-β3 (human, UniProt Q15858 1-1988; A5A6L6 19-218; O60939 30-215; Q2KI11 23-215)", "T1 construct": "polyprotein as encoded, P2A sites liberate the subunits; the entry already carries F276V; also called huNav1.7(F276V)-beta1-beta2-beta3", "assay": "binding FACS, CHO FlpIn cells", "protocol": "(§1) Binding of the ISVDs to cell-expressed Nav1.7α was detected via murine anti-Flag (Sigma, catalog #F1804). Briefly, cells were resuspended in FACS buffer (PBS, 10% FBS, NaN₃) and transferred to a 96-well V-bottom plate at 1×10^5 cells/well. Purified FLAG3-tagged ISVD was diluted in FACS buffer and added to the cells for 30 minutes at 4° C. […] Prior to the read-out, the samples were resuspended in 1 μg/mL propidium iodide (Sigma, catalog #P4170) to exclude dead cells. Between each step, the cells were centrifuged for 5 minutes at 200 grams and washed with 100 μL/well FACS buffer.\n(§2) Based on the huNav1.7α model (as described above) the following huNav1.7α-rhNav1.7α polymorphisms can be allocated to the extracellular part of DI: N146S, F276V, R277Q, E281V and V331M. The first of the residues is in DI S1-S2 whereas the latter four residues belong to DI S5-S6. FACS binding studies (as described above) were performed to stable CHO FlpIn cell lines expressing different variants of huNav1.7+β1−β2−β3 each including one of the four possible extracellular huNav1.7α-rhNav1.7α polymorphisms in the DI S5-S6 region: F276V, R277Q, E281V and V331M (Table 23 and FIGS. 22A-22F). Individual polymorphisms were each sufficient to abolish the binding of F0103265B04, F0103362B08, F010301080, and F0103262B06 to huNav1.7α, recapitulating the absence of binding on rhNav1.7α. F0103262CO2, F0103275B05 and F0103387G05 are more subtly affected in terms of EC50 or Bmax by some of the polymorphisms. None of the individual DI S5-S6 polymorphisms by themselves appear to have an impact on the binding of the two rhNav1.7α cross-reactive ISVDs F0103387G04 and F0103464B09. In addition, no effect on binding of the two ISVDs was observed (data not shown) for the three extracellular DIV VSD huNav1.7α-rhNav1.7α polymorphisms Q1530P, H1531Y and E1534D (FIG. 22G)."}, "[2]": {"molecular_target": "T2, huNav1.7α(R277Q) + β1-β2-β3 (human)", "T2 construct": "polyprotein as encoded; the entry already carries R277Q; also called huNav1.7(R277Q)-beta1-beta2-beta3", "assay": "binding FACS, CHO FlpIn cells", "protocol": "as §1, §2"}, "huNav1.7α + β1-β2-β3 [3]": {"molecular_target": "T3, huNav1.7α + β1-β2-β3 (human, UniProt Q15858 1-1988; A5A6L6 19-218; O60939 30-215; Q2KI11 23-215)", "T3 construct": "Cell line (CHO FlpIn, HEK FlpIn, transient HEK293T) is named under assay; also called huNav1.7-beta1-beta2-beta3; human Nav1.7α with Navβ1, Navβ2 and Navβ3", "assay": "binding FACS, CHO FlpIn cells", "protocol": "as §1, §2"}, "[4]": {"molecular_target": "T4, huNav1.7α(E281V) + β1-β2-β3 (human)", "T4 construct": "polyprotein as encoded; the entry already carries E281V; also called huNav1.7(E281V)-beta1-beta2-beta3", "assay": "binding FACS, CHO FlpIn cells", "protocol": "as §1, §2"}, "[5]": {"molecular_target": "T5, huNav1.7α(V331M) + β1-β2-β3 (human)", "T5 construct": "polyprotein as encoded; the entry already carries V331M; also called huNav1.7(V331M)-beta1-beta2-beta3", "assay": "binding FACS, CHO FlpIn cells", "protocol": "as §1, §2"}, "huNav1.7α + β1-β2-β3 [6]": {"molecular_target": "T3, huNav1.7α + β1-β2-β3", "assay": "competition FACS, CHO FlpIn cells, vs EC25 of F0103275B05(N93R)"}, "huNav1.7α + β1-β2-β3 [7]": {"molecular_target": "T3, huNav1.7α + β1-β2-β3", "assay": "competition FACS, HEK FlpIn cells, vs EC30 of CMYC3-F0103265B04", "protocol": "Competition FACS assays were performed with CMYC3-tagged ISVD F0103265B04 or F0103275B05(N93R) affinity maturation variant on a HEK FlpIn huNav1.7α+β1−β2−β3 transgenic cell line. Briefly, cells were resuspended in FACS buffer (PBS, 2% FBS, 0.05% NaN₃) and 1×10⁵ cells/well were transferred to 96-well V-bottom plates. Cells were subsequently resuspended in a 100 μL mixture of purified ISVD (dilution series) and CMYC3-tagged ISVD F0103265B04 (at a concentration equivalent to EC30) followed by incubation for 1.5 hours at 4° C. […] Between each step, the cells were centrifuged for 5 minutes at 200 g and washed with 100 μL/well FACS buffer. Prior to the read-out, the samples were resuspended in 5 nM TOPRO3 (Molecular probes, catalog #T3605) to exclude dead cells. F0103262CO2, F0103262B06, F0103265A11, F0103265B04, F0103275B05, F0103362B08, and F0103387G04 all compete with F0103265B04 for binding to huNav1.7α, in contrast to an irrelevant control ISVD (IRR) (see Table 21 and FIG. 15A, FIG. 15B, FIG. 15C, and FIG. 15D)."}, "rhNav1.7α + β1-β2-β3 [8]": {"molecular_target": "T6, rhNav1.7α + β1-β2-β3 (rhesus monkey)", "T6 construct": "also called rhNav1.7-beta1-beta2-beta3; rhesus Nav1.7α", "assay": "competition FACS, CHO FlpIn cells, vs EC40 of F0103275B05(N93R)"}, "muNav1.7α [9]": {"molecular_target": "T7, muNav1.7α (murine, UniProt Q62205 1-1984)", "T7 construct": "HEK JmpIn cells; also called murine Nav1.7α", "assay": "binding FACS, HEK JmpIn", "protocol": "as §1"}, "huNav1.7α + β1": {"molecular_target": "huNav1.7α + β1 (human)", "assay": "cell-based or functional assay"}, "rhNav1.7α + β1-β2-β3 [10]": {"molecular_target": "rhNav1.7α + β1-β2-β3 (rhesus monkey)", "assay": "cell-based or functional assay"}, "rhNav1.7α + β1-β2-β3 [11]": {"molecular_target": "T8, rhNav1.7α + β1-β2-β3 (rhesus monkey)", "T8 construct": "also called rhNav1.7-beta1-beta2-beta3; rhNav1.7-β1-β2-β3", "assay": "binding FACS, CHO FlpIn", "protocol": "as §1"}, "huNav1.7α + β1-β2-β3 [12]": {"molecular_target": "T9, huNav1.7α + β1-β2-β3 (human, UniProt Q15858 1-1988; A5A6L6 19-218; O60939 30-215; Q2KI11 23-215)", "T9 construct": "also called huNav1.7-beta1-beta2-beta3; huNav1.7-β1-β2-β3", "assay": "binding FACS, CHO FlpIn", "protocol": "as §1"}, "rhNav1.7α + β1-β2-β3 [13]": {"molecular_target": "T8, rhNav1.7α + β1-β2-β3", "assay": "binding FACS, CHO FlpIn", "procedure,_shortened": "(§3)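 Assessment used purified FLAG3-tagged ISVD incubated on cells for 30 minutes at 4° C in PBS containing 10% FBS and NaN₃, with cells washed between steps. Propidium iodide (1 μg/mL) staining removed dead cells from analysis.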", "remark": "listed apart in the source"}, "huNav1.7α + β1-β2-β3 [14]": {"molecular_target": "T9, huNav1.7α + β1-β2-β3", "assay": "binding FACS, CHO FlpIn", "procedure,_shortened": "as §3", "remark": "listed apart in the source"}, "muNav1.7α [15]": {"molecular_target": "T7, muNav1.7α", "assay": "binding FACS, HEK JmpIn", "remark": "listed apart in the source"}, "rhNav1.7α + β1-β2-β3 [16]": {"molecular_target": "T6, rhNav1.7α + β1-β2-β3", "assay": "binding FACS, CHO FlpIn cells", "protocol": "as §1, §2"}, "huNav1.7α + β1-β2-β3 [17]": {"molecular_target": "T3, huNav1.7α + β1-β2-β3", "assay": "binding FACS, CHO FlpIn cells", "procedure,_shortened": "as §3", "remark": "listed apart in the source"}, "rhNav1.7α + β1-β2-β3 [18]": {"molecular_target": "T6, rhNav1.7α + β1-β2-β3", "assay": "binding FACS, CHO FlpIn cells", "procedure,_shortened": "as §3", "remark": "listed apart in the source"}},
  "note": "Read-outs that look alike come from different tables or passages of the source.",
  "data": [
    {"binder": "B1", "values": [
      {"measurement": "EC50", "setting": "[1]", "result": 2.4, "unit": "nM"},
      {"measurement": "EC50", "setting": "[2]", "result": 2.2, "unit": "nM"},
      {"measurement": "EC50", "setting": "huNav1.7α + β1-β2-β3 [3]", "result": 2.6, "unit": "nM"},
      {"measurement": "EC50", "setting": "[4]", "result": 2.3, "unit": "nM"},
      {"measurement": "EC50", "setting": "[5]", "result": 5.9, "unit": "nM"},
      {"measurement": "IC50", "setting": "huNav1.7α + β1-β2-β3 [6]", "result": 10, "unit": "nM"},
      {"measurement": "IC50", "setting": "huNav1.7α + β1-β2-β3 [7]", "result": 9.4, "unit": "nM"},
      {"measurement": "binding result", "setting": "rhNav1.7α + β1-β2-β3 [8]", "result": "no binding"}
    ]},
    {"binder": "B2", "values": [
      {"measurement": "Bmax", "setting": "muNav1.7α [9]", "result": 74, "unit": "%"},
      {"measurement": "EC50", "setting": "muNav1.7α [9]", "result": 6.3, "unit": "nM"},
      {"measurement": "Qpatch IC50", "setting": "huNav1.7α + β1", "result": 7, "unit": "nM"},
      {"measurement": "Qpatch IC50", "setting": "rhNav1.7α + β1-β2-β3 [10]", "result": 166, "unit": "nM"},
      {"measurement": "EC50", "setting": "rhNav1.7α + β1-β2-β3 [11]", "result": 18, "unit": "nM"},
      {"measurement": "EC50", "setting": "huNav1.7α + β1-β2-β3 [12]", "result": 5.2, "unit": "nM"},
      {"measurement": "Bmax", "setting": "rhNav1.7α + β1-β2-β3 [13]", "result": 33, "unit": "%"},
      {"measurement": "EC50", "setting": "rhNav1.7α + β1-β2-β3 [13]", "result": 18, "unit": "nM"},
      {"measurement": "Bmax", "setting": "huNav1.7α + β1-β2-β3 [14]", "result": 99, "unit": "%"},
      {"measurement": "EC50", "setting": "huNav1.7α + β1-β2-β3 [14]", "result": 5.2, "unit": "nM"},
      {"measurement": "EC50", "setting": "muNav1.7α [15]", "result": 6.3, "unit": "nM"}
    ]},
    {"binder": "B3", "values": [
      {"measurement": "EC50", "setting": "[1]", "result": 2.7, "unit": "nM"},
      {"measurement": "EC50", "setting": "[2]", "result": 2.6, "unit": "nM"},
      {"measurement": "EC50", "setting": "huNav1.7α + β1-β2-β3 [3]", "result": 3.4, "unit": "nM"},
      {"measurement": "EC50", "setting": "rhNav1.7α + β1-β2-β3 [16]", "result": 31, "unit": "nM"},
      {"measurement": "EC50", "setting": "[4]", "result": 2.7, "unit": "nM"},
      {"measurement": "EC50", "setting": "[5]", "result": 1.6, "unit": "nM"},
      {"measurement": "IC50", "setting": "huNav1.7α + β1-β2-β3 [6]", "result": 12, "unit": "nM"},
      {"measurement": "IC50", "setting": "rhNav1.7α + β1-β2-β3 [8]", "result": 79, "unit": "nM"},
      {"measurement": "EC50", "setting": "huNav1.7α + β1-β2-β3 [17]", "result": 5.4, "unit": "nM"},
      {"measurement": "Bmax", "setting": "rhNav1.7α + β1-β2-β3 [18]", "result": 54, "unit": "%"},
      {"measurement": "EC50", "setting": "rhNav1.7α + β1-β2-β3 [18]", "result": 33, "unit": "nM"}
    ]}
  ]
}
